Legend:
[1] = tested on: mouse model of controlled cortical impact (CCI); assay: Elevated Plus Maze in controlled cortical impact (CCI) TBI mice; format: in vivo
Text: The mouse controlled cortical impact (CCI) injury model was used as previously described. In brief, mice were anesthetized with 5% isoflurane and 1:1 O2:N2 mixture. Animals were mounted on a stereotaxic frame and were secured by ear bars and an incisor bar. Anesthesia was maintained with 2.0% isoflurane and 1:1 O2:N2 mixture. A 5-mm-diameter craniotomy was made midway between bregma and lambda on the right side, with the medial edge of the craniotomy 1 mm lateral to midline. Injury was produced using a magnetic impactor mounted at an angle of 110° from the vertical plane. A single impact at a velocity of 4+/−0.2 m/s was used inflict a moderate to severe injury (1.2-1.3 mm impact depth). After injury, the incision was closed. Sham animals underwent identical surgeries except for impact injury. Core body temperature was monitored using a rectal thermometer and maintained at 36.8° C.-37.2° C. with a heating pad throughout the procedure. […] Animal research was performed with approval of the Institutional Animal Care and Use Committee at ISIS Services LLC (San Carlos, Calif., USA). […]
The elevated plus maze was used to assess anxiety behavior in mice. […] The frequency of entries into the open and closed arms was recorded with an overhead camera using tracking software (Ethovision, Noldus Information Technology, Leesbury, Va.).

[2] = tested on: phospho-S6 Ribosomal Protein (S235/236) in hippocampus; assay: Hippocampal phospho-S6RP western blot and tissue staining 3 days post-TBI; format: in vivo, mouse
Text: The mouse controlled cortical impact (CCI) injury model was used as previously described. In brief, mice were anesthetized with 5% isoflurane and 1:1 O2:N2 mixture. Animals were mounted on a stereotaxic frame and were secured by ear bars and an incisor bar. Anesthesia was maintained with 2.0% isoflurane and 1:1 O2:N2 mixture. A 5-mm-diameter craniotomy was made midway between bregma and lambda on the right side, with the medial edge of the craniotomy 1 mm lateral to midline. Injury was produced using a magnetic impactor mounted at an angle of 110° from the vertical plane. A single impact at a velocity of 4+/−0.2 m/s was used inflict a moderate to severe injury (1.2-1.3 mm impact depth). After injury, the incision was closed. Sham animals underwent identical surgeries except for impact injury. Core body temperature was monitored using a rectal thermometer and maintained at 36.8° C.-37.2° C. with a heating pad throughout the procedure. For treatments, TIMP3 (60.0 μg/kg) or vehicle control (PBS) administration was performed at 2, 24, and 48 hrs after injury via tail vein injections in a total volume of 125 μl. Animal research was performed with approval of the Institutional Animal Care and Use Committee at ISIS Services LLC (San Carlos, Calif., USA). Mice received humane care according to the criteria outlined by the National Research Council's Institute of Laboratory Animal Resources in the “Guide for the Care and Use of Laboratory Animals”. Neurocognitive testing conducted at UT Houston was in compliance with University of Texas Houston Institutional Animal Care and Use Committee.
Following treatments mice were subjected to a intra-cardiac perfusion-fixation procedure under isoflurane anesthesia. In brief, following a small incision into the right ventricle, a blunt needle was placed 5 mm into the heart and clamped in place. The left atrium was cut and 30 mls of ice cold PBS was perfused through the mouse using a syringe pump at a constant rate of 4 ml/min. After PBS the procedure was repeated with 30 ml of 4% ice-cold paraformaldehyde (PFA) in PBS. Upon completion of the perfusion procedure, brains were dissected out and placed in 20 mls of 4% PFA for a further 24 hrs before transferring to a 30% sucrose solution for an additional 48 hrs. Following sucrose infiltration, brains were frozen in Tissue-Tek O.C.T.™ compound (Cat#4583, Sakura Fineteck USA, Inc. Torrance, Calif.) using an isopentane/dry ice bath. To prepare coronal sections for tissue staining 20 μm thick sections were obtained using a Leica CM1850™ cryostat (Leica Microsystems, Buffalo Grove, Ill.). Sections were immediately placed in a Storage Solution (30% Glycerol, 30% Ethylene Glycol, 40% 0.1M Phosphate Buffer pH 7.2) and stored at −20° C. until required.
The same protocol was adopted for both tissue sections and isolated neuronal cultures. Briefly, sections were permeabilized with antibody staining solution:—2% w/v BSA (Cat# A3059. Sigma, St Louis, Mo.), 0.1% Triton X-100™ (Cat# X100. Sigma, St Louis, Mo.), 2% v/v goats serum (Cat# S-1000, Vector Labs, Burlingame, Calif.) in PBS. Sections were incubated overnight with primary antibodies on a rotating shaker at 4° C. Sections were then washed three times for 3 min with PBS, and then incubated with secondary antibodies for 1 hr. After staining, sections were washed in PBS, briefly air dried, and coverslipped using Prolong™ gold anti-fade reagent with DAPI (Cat# P36931, Life Technologies, Grand Island, N.Y.). Isolated neuronal cultures underwent the same staining protocol with the exception of the last step in which Prolong gold anti-fade reagent with DAPI was added to the wells of the culture plate sufficient to cover the material. Images were obtained using a Leica DMI6000-B™ inverted microscope, Leica DFC36-FX™ digital camera and Leica Application Suite™ (L.A.S.) software, version 3.1. […]

B1: TIMP3: Recombinant tissue inhibitor of matrix metalloproteinase-3, a soluble protein released by MSCs, obtained from Amgen Inc. (protein)
chain: CTCSPSHPQDAFCNSDIVIRAKVVGKKLVKEGPFGTLVYTIKQMKMYRGFTKMPHVQYIHTEASESLCGLKLEVNKYQYLLTGRVYDGKMYTGLCNFVERWDQLTLSQRKGLNYRYHLGCNCKIKSCYYLPCFVTSKNECLWTDMLSNFGYPGYQSKHYACIRQKGGYCSWYRGWAPPDKSIINATDP
frequency of entries into the closed arms (Elevated Plus Maze) ([1]; TBI+TIMP3 vs TBI alone, day 3): comparable frequency | frequency of entries into the open arms (Elevated Plus Maze) ([1]; TIMP3 60 μg/kg tail-vein at 1 hr, 24 hrs, 72 hrs post-TBI, EPM on day 3, vs TBI alone): 11±1.8 | ipsilateral hippocampal phospho-S6RP levels versus sham controls ([2]; 3 days post-TBI, western blot): are not significantly elevated in TBI alone versus sham controls unlike IV TIMP3 treated animals versus Sham controls | phospho-S6 Ribosomal Protein (S235/236) in ipsilateral hippocampal homogenates ([2]; TIMP3 60 μg/kg IV x3, day 3, western blot, vs TBI alone): significantly elevates | phospho-S6RP pixel density in area CA3 ([2]; day 3, tissue staining): significant elevation | phospho-S6RP/NeuN+ve neurons in the GCL proximal to injury site ([2]; day 3, tissue staining): an elevation with TIMP3 treatment | phospho-S6RP (S235/236) in contralateral hippocampal homogenates ([2]; day 3, western blot): No differences were observed | phosphorylated S6RP staining in the non-neuronal molecular layer (microglia/astrocytes) ([2]; ipsilateral hippocampus, day 3): Neither sham controls nor TIMP3 treated TBI mice showed this pattern of staining
